In patent US20240254246A1 (PROMETHEUS BIOSCIENCES, published 2024):
Substitutions are numbered along the chain they refer to. Where two headings read alike, the source gives them in different places. Each block holds one binder with its values, some of them ahead of it.

Assays:
recombinant human CD30L [1] = target: T1, recombinant human CD30L (human, UniProt P32971 63-234); assay: ELISA, Binding to CD30L, immobilized human CD30L (Absorbance 450 nm)
T1 construct: Purified recombinant protein of ELISA, BLI, Carterra and KinExA; also called rhCD30L; huCD30L
T1 sequence (looked up): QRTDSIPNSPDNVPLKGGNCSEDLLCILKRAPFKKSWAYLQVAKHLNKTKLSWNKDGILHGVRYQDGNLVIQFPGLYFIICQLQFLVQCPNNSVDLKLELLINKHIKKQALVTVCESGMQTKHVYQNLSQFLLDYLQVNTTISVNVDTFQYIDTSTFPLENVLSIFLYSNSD

[2] = target: T2, cynomolgus CD30L expressed on HEK293 cells (cynomolgus, UniProt A0A7N9CVX7 1-234); assay: flow cytometry, HEK293-cyCD30L/CD30-Fc Neutralization: blocking of CD30-Fc binding to HEK293-cyCD30L cells
T2 construct: whole, on cells; also called HEK293-cyCD30L; HEK-cyCD30L
T2 sequence: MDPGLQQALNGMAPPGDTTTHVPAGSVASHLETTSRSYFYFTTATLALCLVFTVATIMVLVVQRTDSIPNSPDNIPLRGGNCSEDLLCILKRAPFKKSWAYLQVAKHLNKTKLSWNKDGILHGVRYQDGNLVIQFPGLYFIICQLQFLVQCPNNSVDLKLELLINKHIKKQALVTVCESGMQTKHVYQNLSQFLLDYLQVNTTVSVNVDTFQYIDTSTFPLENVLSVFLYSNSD

recombinant human CD30L [3] = target: T1, recombinant human CD30L; assay: ELISA, binding to purified rhCD30L
recombinant human CD30L [4] = target: T1, recombinant human CD30L; assay: ELISA, Neutralization of CD30-Fc binding to immobilized human CD30L (Absorbance 450 nm)
[5] = target: T3, human CD30L expressed on B16 cells (human, UniProt P32971 1-234); assay: flow cytometry, binding to B16-rhCD30L cells
T3 construct: whole, on cells; B16 cell line transfected to express human CD30L; also called B16-huCD30L; B16-rhCD30L
T3 sequence (looked up): T2 sequence with T19A, T20M, E32G, F41L, I75V, R78K, V204I, V227I

[6] = target: T4, recombinant cynomolgus CD30L (cynomolgus, UniProt A0A7N9CVX7 63-234); assay: ELISA, binding to purified rcyCD30L
T4 construct: Purified recombinant protein; also called rcyCD30L; cyno CD30L
T4 sequence: T1 sequence (looked up) with V13I, K16R, I142V, I165V

[7] = target: T2, cynomolgus CD30L expressed on HEK293 …; assay: flow cytometry, blocking of CD30-Fc on HEK293-cyCD30L cells; competitor CD30-Fc
[8] = target: T3, human CD30L expressed on B16 cells; assay: flow cytometry, blocking of CD30-Fc on B16-huCD30L cells; competitor CD30-Fc
[9] = target: T3, human CD30L expressed on B16 cells; assay: cell-based or functional assay
[10] = target: T2, cynomolgus CD30L expressed on HEK293 …; assay: cell-based or functional assay
recombinant human CD30L [11] = target: T1, recombinant human CD30L; assay: ELISA, binding to rhCD30L (OD 450 nm)
recombinant human CD30L [12] = target: T1, recombinant human CD30L; assay: ELISA, blocking of CD30-Fc on huCD30L; competitor CD30-Fc
[13] = target: T3, human CD30L expressed on B16 cells; assay: flow cytometry, B16-huCD30L/CD30-Fc Neutralization: blocking of CD30-Fc binding to B16-huCD30L cells
[14] = target: T4, recombinant cynomolgus CD30L; assay: ELISA, Neutralization of CD30-Fc binding to immobilized cyno CD30L (Absorbance 450 nm)
[15] = target: T2, cynomolgus CD30L expressed on HEK293 …; assay: flow cytometry, binding to HEK293-cyCD30L cells
[16] = target: T3, human CD30L expressed on B16 cells; assay: cell-based or functional assay; remark: listed apart in the source
[17] = target: T4, recombinant cynomolgus CD30L; assay: ELISA, blocking of CD30-Fc on rcyCD30L; competitor CD30-Fc
[18] = target: T2, cynomolgus CD30L expressed on HEK293 …; assay: flow cytometry, Cell Binding to HEK293-cyCD30L (MFI)
[19] = target: T4, recombinant cynomolgus CD30L; assay: ELISA, Binding to CD30L, immobilized cyno CD30L (Absorbance 450 nm)
[20] = target: T3, human CD30L expressed on B16 cells; assay: cell-based or functional assay; remark: listed apart in the source
recombinant human CD30L [21] = target: T1, recombinant human CD30L; assay: ELISA, blocking of CD30-Fc binding to huCD30L (OD 450 nm)
[22] = target: T4, recombinant cynomolgus CD30L; assay: KinExA, calculated as KD x kon
Protocol: (§1) To more precisely define and compare the binding affinities (dissociation equilibrium constant, KD), the association rate constant (on rate, kₒₙ), and the dissociation rate constant (off rate, koff), the kinetic exclusion assay (KinExA) was performed. KinExA measures the equilibrium binding affinity and kinetics between unmodified binding molecules in solution. For affinity analysis, the equilibrium dissociation constant, KD, is experimentally determined and reflects the strength of the binding interaction. The rate of association, kₒₙ, is also experimentally determined, while the rate of dissociation, koff, is calculated based on the equation: koff=Kd×kₒₙ.
A KD analysis requires immobilization of one interaction partner to a solid phase which is then used as a probe to capture the other interaction partner, the constant binding partner (Fab). For each experiment, CD30L antigen is titrated in a background of the Fab and allowed to reach equilibrium. The solutions are then briefly exposed to the solid phase and a portion of free Fab is captured. The captured Fab is then labeled with a fluorescent secondary molecule. The short contact time with the solid phase is less than the time needed for dissociation of the pre-formed complex in solution, thus competition between the solution and the solid phase titrated binding partner is kinetically excluded.

[23] = target: T4, recombinant cynomolgus CD30L; assay: KinExA, Fab in solution
Description: (§2) For each experiment, CD30L antigen is titrated in a background of the Fab and allowed to reach equilibrium. The solutions are then briefly exposed to the solid phase and a portion of free Fab is captured. The captured Fab is then labeled with a fluorescent secondary molecule. The short contact time with the solid phase is less than the time needed for dissociation of the pre-formed complex in solution, thus competition between the solution and the solid phase titrated binding partner is kinetically excluded.
(§3) The signals generated from the captured Fab, which are directly proportional to the concentration of free Fab in the equilibrated samples, are used to determine the KD value. The KinExA Pro software performs a least squares analysis on the measured data to fit optimal solution for the KD and the activity of the Fab to a curve representative of a 1:1 reversible bi-molecular interaction.

recombinant human CD30L [24] = target: T1, recombinant human CD30L; assay: KinExA, calculated as KD x kon
Protocol: as §1

recombinant human CD30L [25] = target: T1, recombinant human CD30L; assay: KinExA, Fab in solution
Description: as §2, §3

[26] = target: T3, human CD30L expressed on B16 cells; assay: flow cytometry on B16 cells expressing hCD30L
recombinant human CD30L [27] = target: T1, recombinant human CD30L; assay: recombinant blocking ELISA; competitor CD30
[28] = target: T3, human CD30L expressed on B16 cells; assay: flow cytometry, binding to B16 cells expressing human CD30L (MFI)
recombinant mouse CD30L = target: T5, recombinant mouse CD30L (mouse, UniProt P32972 68-239); assay: ELISA on recombinant protein
T5 construct: Purified recombinant protein; also called rmCD30L
T5 sequence (looked up): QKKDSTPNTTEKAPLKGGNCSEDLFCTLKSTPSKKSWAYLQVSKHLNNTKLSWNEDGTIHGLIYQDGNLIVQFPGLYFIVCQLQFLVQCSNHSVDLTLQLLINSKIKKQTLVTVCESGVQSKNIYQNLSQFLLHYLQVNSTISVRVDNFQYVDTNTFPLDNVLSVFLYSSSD

recombinant human CD30L [29] = target: T1, recombinant human CD30L; assay: ELISA on recombinant protein
[30] = target: T4, recombinant cynomolgus CD30L; assay: ELISA on recombinant protein
recombinant human CD30L [31] = target: T1, recombinant human CD30L; assay: ELISA, binding to rhCD30L (OD 450 nm); remark: listed apart in the source
recombinant human CD30L [32] = target: T1, recombinant human CD30L; assay: BLI, CD30 association to CD30L held by captured IgG; competitor rhCD30
Protocol: Briefly, individual anti-human biosensors were loaded with purified IgG (normalized to 10 μg/mL) and a baseline was measured for each biosensor. Biosensors were saturated with biotin and with polyclonal hulgG and a baseline was measured. Loaded biosensors were then allowed to bind CD30L and the association rate was measured for the binding. Biosensors were moved to buffer wells to measure the dissociation rate.

recombinant human CD30L [33] = target: T1, recombinant human CD30L; assay: KinExA, Fab in solution; remark: listed apart in the source
Description: as §2, §3

recombinant human CD30L [34] = target: T1, recombinant human CD30L; assay: KinExA, calculated as KD x kon; remark: listed apart in the source
Protocol: as §1

EC50 (read off the curve) (recombinant human CD30L [1]): ~0.03 nM
IC50 (read off the curve) [2]: ~0.3 nM
EC50 (recombinant human CD30L [3]): 0.03 nM
IC50 (read off the curve) (recombinant human CD30L [4]): ~2 nM
EC50 [5]: 0.64 nM
EC50 [6]: 0.05 nM
IC50 [7]: 0.34 nM
IC50 [8]: 0.67 nM
Inhibition of IL-8 release in a dual cell assay (B16-huCD30L cells + K299 cells) IC50 [9]: 0.89 nM
Inhibition of IL-8 release in a dual cell assay (HEK293-cyCD30L cells + K299 cells) IC50 [10]: 0.41 nM
EC50 (read off the curve) (recombinant human CD30L [11]): ~0.1 nM
IC50 (recombinant human CD30L [12]): 1.92 nM
IC50 (read off the curve) [13]: ~0.4 nM
IC50 (read off the curve) [14]: ~2 nM
EC50 [15]: 0.33 nM
IC50 (read off the curve), IL-8 release, dual cell assay (B16-huCD30L cells + K299 cells) [16]: ~1 nM
IC50 [17]: 1.53 nM
EC50 (read off the curve) [18]: ~0.3 nM
EC50 (read off the curve) [19]: ~0.03 nM
IC50 (read off the curve), IL-8 release, Dual Assay K299 + B16-huCD30L [20]: ~1 nM
IC50 (read off the curve) (recombinant human CD30L [21]): ~2 nM
B1: anti-CD30L antibody clone 2 germlined (antibody, V domains shown)
VH: EVQLVESGGGLVQPGRSLRLSCAASGFNFDDYAMHWVRQAPGKGLEWVSGISWRSGNIGYADSVKGRFTISRDNAKNSLYLQMNSLRAEDTALYYCAKDKGIGFNWNYEGFDYWGQGTLVTVSS
VL: DIQMTQSPSSLSASVGDRVTITCRASQGISNHLAWFQQKPGKAPKSLIYAASSLQSGVPSRFSGSGSGTDFTLTISSLQPEDFATYYCQQYVTYPLTFGGGTKVEIK
notes: also called germlined clone 2

koff [22]: 0.000378 s⁻¹
Kd [23]: 0.122 nM
kon [23]: 3.1e+06 M⁻¹ s⁻¹
koff (recombinant human CD30L [24]): 0.000141 s⁻¹
Kd (recombinant human CD30L [25]): 0.0905 nM
kon (recombinant human CD30L [25]): 1.55e+06 M⁻¹ s⁻¹
B2: Fab of clone 2 germlined (Fab, V domains shown)
VH: B1 VH
VL: B1 VL
notes: Fab; also called Fab of a representative anti-CD30L, clone 2 germlined

hCD30L B16 (+) FLOW [26]: 8.42e+06
IC50 (recombinant human CD30L [27]): 3.51 nM
EC50 (read off the curve) [28]: ~3 nM
rmCD30L (+) ELISA (recombinant mouse CD30L): 0.048
rhCD30L (+) ELISA (recombinant human CD30L [29]): 1.41
rcyCD30L (+) ELISA [30]: 0.982
EC50 (read off the curve) (recombinant human CD30L [31]): ~0.1 nM
rhCD30L:rhCD30 Blocking (recombinant human CD30L [32]): 0.071
B3: anti-CD30L antibody clone 82 (antibody, V domains shown)
VH: EVQLVESGGGLVQPGGSLRLSCAVSGITFSNAWMSWVRQAPGKGLEWVGRIKSKTYGGTTDYAAPVKGRFIISRDDSKDTLYLQMNSLKTEDTAIYYCTTDPWNYVNYNYFMDVWGKGTTVTVSS
VL: DIQMTQSPSSLSASVGDRVTITCRASQDIRNYLAWYQQKPGKITHLLVYAASTLQSGVPSRFSGSGSGTDFTLTINSLQPEDVATYYCQNYFSVPLTFGGGTKVEIK
notes: purified recombinant IgG (held by anti-human biosensors); mouse strain #1

Kd (recombinant human CD30L [33]): 0.377 nM
kon (recombinant human CD30L [33]): 937000 M⁻¹ s⁻¹
koff (recombinant human CD30L [34]): 0.000353 s⁻¹
B4: Fab of the reference 1 (ref1) anti-CD30L (Fab, V domains shown)
VH: QVQLQESGPGLVKPSETLSLTCTVSGGSISSYIWSWIRQPAGKGLEWIGRIYASGNTNYNPSLKSRVTISVDTSKNQFSLKLSSMTAADTAVYYCARDYRVAGTYYYYYGLDVWGQGTTVTVSS
VL: QSALTQPASVSGSPGQSITISCTGTSSDVGVYDYVSWYQQHPGKAPKLMIYEVSNRPSGVSNRFSGSKSGNTASLTISGLQTEDEADYYCSSYTSRSTWVFGGGTKLTVL
notes: Fab
